This is an account of results in patent US20160376353A1 (DECIMMUNE THERAPEUTICS, published 2016).

Ends that are not written are not given here.

In assay [1] the target is T1, Biotin-labeled N2 peptide (also: biotin label, position not given here).
T1 construct: also called immobilized N2
T1 peptide: LMKNMDPLNDNV
Description: SPR (BIACORE X100), biotin-N2 peptide on NeutrAvidin chip, antibody in solution; kd/ka (monovalent). An excerpt:
(§1) The remaining sequences represent the germline sequences with the highest homology that encode productive antibody. All of the humanized sequences maintain the murine 21G6 CDR regions which are shown inside the boxes in FIG. 1. The humanized variable regions were cloned into a vector containing wild type human IgG1, human IgG1 containing a mutation at amino acid 297 (Asn 297 to Q297), human IgG4 containing a mutation at amino acid 228 (serine to proline) and human kappa light chain. Each antibody (heavy and light) combination was expressed by transient co-transfection in 293A cells (in the presence of low Ig serum). The antibody containing supernatants were collected and analyzed for binding to the N2 peptide by ELISA and BIACORE™ X100 system. All experiments were performed using a BIACORE™ X100 system. For antibody capture experiments, a CM5 chip was prepared by 10 ul/minute injection of EDC/NHS (N-ethyl-N′-(3-dimethylaminopropyl) carbodiimide (EDC), N-hydroxysuccinimide (NHS) for 7 minutes, followed by a 10 ul/minute injection of anti-human Fc (GE Lifesciences) at a concentration of 25 ug/ml in sodium acetate at pH 5 for 3 minutes. Ethanolamine-HCl was injected for 7 minutes at 10 ul/minute. The chimeric or humanized antibodies were captured onto flow cell 2 and N2 peptide at varying concentrations was flowed over flow cells 1 and 2 at a rate of 30 ul/minute with a contact time of 120 seconds and a dissociation period of 120 seconds. Complete removal of captured antibody was accomplished by regeneration with 3M MgCl2 for 30 seconds at a flow rate of 10 ul/minute. For peptide immobilized experiments, a CM5 chip was prepared by 10 ul/minute injection of EDC/NHS (N-ethyl-N′-(3-dimethylaminopropyl) carbodiimide (EDC), N-hydroxysuccinimide (NHS) for 7 minutes, followed by a 10 ul/minute injection of NEUTRAVIDIN® protein (ThermoFisher Pierce) at a concentration of 5 ug/ml in sodium acetate, pH 5 to an immobilization response of 100-200RU. Ethanolamine-HCl was injected for 7 minutes at 10 ul/minute. Biotin-labeled N2 peptide was captured on flow channel 2 with the goal of an experimental Rmax of about 50-100RU. Purified chimeric or humanized antibodies were flowed over both flow channels at a rate of 30 ul/min for a contact time of 120 seconds and allowed to dissociate for 600 seconds.

The target in assay [2] is T1, Biotin-labeled N2 peptide. Description: SPR (BIACORE X100), biotin-N2 peptide on NeutrAvidin chip, antibody in solution; steady state affinity.
Excerpt: as §1, with “The” for “The remaining sequences represent the germline sequences with the highest homology that encode productive antibody. All of the humanized sequences maintain the murine 21G6 CDR regions which are shown inside the boxes in FIG. 1. The”
(In SPR one partner is held on a chip, and binding of the other changes the refractive index at the surface.)

For assay [3], the target named is T2, N2 peptide (non-muscle myosin neo-epitope N2 12mer sequence).
T2 construct: also called N2 12-mer peptide
T2 peptide: LMKNMDPLNDNV
Description: SPR (BIACORE X100), immobilized antibody, N2 peptide in solution; lower end of the printed range 4-6 uM. The text has this: (§2) The remaining sequences represent the germline sequences with the highest homology that encode productive antibody. All of the humanized sequences maintain the murine 21G6 CDR regions which are shown inside the boxes in FIG. 1. The humanized variable regions were cloned into a vector containing wild type human IgG1, human IgG1 containing a mutation at amino acid 297 (Asn 297 to Q297), human IgG4 containing a mutation at amino acid 228 (serine to proline) and human kappa light chain. Each antibody (heavy and light) combination was expressed by transient co-transfection in 293A cells (in the presence of low Ig serum). The antibody containing supernatants were collected and analyzed for binding to the N2 peptide by ELISA and BIACORE™ X100 system. All experiments were performed using a BIACORE™ X100 system. […]

For assay [4], the target named is T1, Biotin-labeled N2 peptide. Description: SPR (BIACORE X100), biotin-N2 peptide on NeutrAvidin chip, antibody in solution; upper end of the printed range 1-11.
Excerpt: as §2

Assay [5] has as its target T1, Biotin-labeled N2 peptide. Description: SPR (BIACORE X100), biotin-N2 peptide on NeutrAvidin chip, antibody in solution; upper end of the printed range 5-53.
Excerpt: as §2

B1: Murine 21G6 antibody (antibody, V domains shown)
VH: QVQLQQPGAELVKPGASVKLSCKASGYTFTSYYMYWVKQRPGQGLEWIGGINPSNGGTNFNEKFKSKATLTVDKSSSTAYMQLSSLTSEDSAVYYCTRWGYDREWFAYWGQGTLVTVSA
VL: DIVMTQAAPSVPVTPGESVSISCRSSKSLLHSNGNTYLYWFLQRPGQSPQVLIYRMSNLASGVPDRFSGSGSGTAFTLRISRVEAEDVGVYYCMQHLEYPFTFGSGTKLEIKR
notes: also called m21G6
Consider B1, for which the Kd lay in the range of 200 to 400 nM in assay [1], 313 to 540 nM in assay [2] and 4000 to 6000 nM in assay [3]. For the same molecule, the association rate constant (kon) in assay [4] came to 110000 M⁻¹ s⁻¹. Moreover, the koff in assay [5] came out at 0.053 s⁻¹.

One may read the Kd as the free concentration of one partner at which half of the binding sites on the other are occupied at equilibrium, for simple one-to-one binding. Broadly, the kon is the rate constant with which the complex forms. Broadly, the koff is a measure of how fast the partners let go of each other.
